Test [1] has as its target T1, His-Avi-Trx-Frmpd1-pept (Frmpd1 residues 895–938) (UniProt A2AKB4 895-938, not fully specified; biotin (biotinylated in E. coli by native BirA ligase)).
T1 chain: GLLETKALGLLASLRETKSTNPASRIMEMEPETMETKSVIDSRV
Briefly: BLI; in the presence of Gαt*.

The target of test [2] is T1, His-Avi-Trx-Frmpd1-pept (Frmpd1 …). Briefly: BLI. A general note: In BLI a coated tip is dipped into the sample, and binding shifts an interference pattern.

B1: HMT-Gpsm2 (His6-MBP-TEV site-Gpsm2) (natural protein)
chain: MEENLISMREDHSFHVRYRMEASCLELALEGERLCKSGDCRAGVSFFEAAVQVGTEDLKTLSAIYSQLGNAYFYLHDYAKALEYHHHDLTLARTIGDQLGEAKASGNLGNTLKVLGNFDEAIVCCQRHLDISRELNDKVGEARALYNLGNVYHAKGKSFGCPGPQDVGEFPEEVRDALQAAVDFYEENLSLVTALGDRAAQGRAFGNLGNTHYLLGNFRDAVIAHEQRLLIAKEFGDKAAERRAYSNLGNAYIFLGEFETASEYYKKTLLLARQLKDRAVEAQSCYSLGNTYTLLQDYEKAIDYHLKHLAIAQELNDRIGEGRACWSLGNAYTALGNHDQAMHFAEKHLEISREVGDKSGELTARLNLSDLQMVLGLSYSTNNSIMSENTEIDSSLNGVRPKLGRRHSMENMELMKLTPEKVQNWNSEILAKQKPLIAKPSAKLLFVNRLKGKKYKTNSSTKVLQDASNSIDHRIPNSQRKISADTIGDEGFFDLLSRFQSNRMDDQRCCLQEKNCHTASTTTSSTPPKMMLKTSSVPVVSPNTDEFLDLLASSQSRRLDDQRASFSNLPGLRLTQNSQSVLSHLMTNDNKEADEDFFDILVKCQGSRLDDQRCAPPPATTKGPTVPDEDFFSLILRSQGKRMDEQRVLLQRDQNRDTDFGLKDFLQNNALLEFKNSGKKSADH
What is called Kd is the concentration at which binding is half-saturated. Regarding B1, the Kd was 198 nM in test [1] and 286 nM in test [2].

Source of the values: article PMC9581579 (2022).
